Data as given in publication PMC8163065, “Involvement of the R2R3-MYB transcription factor MYB21 and its homologs in regulating flavonol accumulation in Arabidopsis stamen”.

T1: GST-MYB21 (Arabidopsis thaliana, UniProt Q9LK95 1-226)
T1 sequence: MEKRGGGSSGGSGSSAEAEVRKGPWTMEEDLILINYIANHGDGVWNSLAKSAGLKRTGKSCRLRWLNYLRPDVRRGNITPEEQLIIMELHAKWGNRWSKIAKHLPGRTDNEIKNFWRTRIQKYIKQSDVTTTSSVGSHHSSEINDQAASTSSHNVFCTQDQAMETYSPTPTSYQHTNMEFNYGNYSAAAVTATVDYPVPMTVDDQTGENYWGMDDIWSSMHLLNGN

B1: GARE2 FLS1 promoter probe (dsDNA)
DNA 1: AGCCAGTGGCGATAAGCTGGGCCTTGTCTTGTTATATGGGCCTTGAATC
DNA 2: GATTCAAGGCCCATATAACAAGACAAGGCCCAGCTTATCGCCACTGGCT
B2: GARE1 FLS1 promoter probe (dsDNA)
DNA 1: AGCCAGTGGCGATAAGCTCTCACCTTTTTTTTGTTATTTTATATCTTAAG
DNA 2: CTTAAGATATAAAATAACAAAAAAAAGGTGAGAGCTTATCGCCACTGGCT

Target: T1, GST-MYB21
Assay: EMSA; LightShift Chemiluminescent EMSA kit (Thermo), per manufacturer; buffer, salt, pH and temperature not stated
Conditions: protein: recombinant; tags: N-terminal GST (pGEX-4T-1); label: biotin (via primer S18, 5' tail); blunt

Binder | binding result
B1 | binds
B2 | binds
